Test results as given in article PMC10397247.

Key:
Test in all cases: two-hybrid library CCNG1;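 further: natural log of median RNA to DNA barcode read ratio; higher means stronger binding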
P12bH1 = molecular target: T1, P12bH1
T1 chain: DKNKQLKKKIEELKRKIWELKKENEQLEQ

P1bH1 = molecular target: T2, P1bH1
T2 chain: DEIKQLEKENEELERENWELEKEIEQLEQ

P2bH1 = molecular target: T3, P2bH1
T3 chain: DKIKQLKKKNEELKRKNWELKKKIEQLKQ

P3bH1 = molecular target: T4, P3bH1
T4 chain: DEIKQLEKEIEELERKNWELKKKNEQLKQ

P4bH1 = molecular target: T5, P4bH1
T5 chain: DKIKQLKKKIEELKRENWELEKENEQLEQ

P5bH1 = molecular target: T6, P5bH1
T6 chain: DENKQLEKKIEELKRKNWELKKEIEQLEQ

P6bH1 = molecular target: T7, P6bH1
T7 chain: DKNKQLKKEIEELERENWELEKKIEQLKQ

P7bH1 = molecular target: T8, P7bH1
T8 chain: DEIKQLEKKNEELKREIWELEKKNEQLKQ

P8bH1 = molecular target: T9, P8bH1
T9 chain: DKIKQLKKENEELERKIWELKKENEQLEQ

P9bH1 = molecular target: T10, P9bH1
T10 chain: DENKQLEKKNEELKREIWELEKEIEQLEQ

interaction score (P12bH1): -1.4 | interaction score (P1bH1): -0.0192 | interaction score (P2bH1): -1.01 | interaction score (P3bH1): -1.43 | interaction score (P4bH1): -0.999 | interaction score (P5bH1): -0.826 | interaction score (P6bH1): -0.251 | interaction score (P7bH1): -0.861 | interaction score (P8bH1): -0.578 | interaction score (P9bH1): -0.294
Binder: DKNKQLKKKIEELKRKIWELKKENEQLEQ [P12bH1]
